Reference: PMC11988454, “Discovery of synthetic small molecules targeting the central regulator of Salmonella pathogenicity” (Science Advances, 2025)

How the values were obtained:
HilD = target: T1, HilD (Salmonella enterica serovar Typhimurium, UniProt P0CL08 1-309); experiment: EMSA; no C26; settings: protein: recombinant; tags: His6-SUMO removed by SUMO protease; chain copies: 2; label: 5'-Cy5 on strand 1; blunt
T1 sequence: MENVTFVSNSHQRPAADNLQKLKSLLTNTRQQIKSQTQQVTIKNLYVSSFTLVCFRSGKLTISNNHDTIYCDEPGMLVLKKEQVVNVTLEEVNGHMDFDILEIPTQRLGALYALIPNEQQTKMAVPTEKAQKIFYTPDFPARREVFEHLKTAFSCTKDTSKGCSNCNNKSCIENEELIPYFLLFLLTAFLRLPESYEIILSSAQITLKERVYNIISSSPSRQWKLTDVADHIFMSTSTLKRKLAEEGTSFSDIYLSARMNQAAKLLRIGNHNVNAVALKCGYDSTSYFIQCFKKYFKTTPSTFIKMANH

HilC = target: T2, HilC (Salmonella enterica serovar Typhimurium, UniProt E1WAB2 1-295); experiment: EMSA; no C26; settings: protein: recombinant; tags: N-terminal His6-TEV, cleaved by TEV protease; chain copies: 2; label: 5'-Cy5 on strand 1; blunt
T2 sequence: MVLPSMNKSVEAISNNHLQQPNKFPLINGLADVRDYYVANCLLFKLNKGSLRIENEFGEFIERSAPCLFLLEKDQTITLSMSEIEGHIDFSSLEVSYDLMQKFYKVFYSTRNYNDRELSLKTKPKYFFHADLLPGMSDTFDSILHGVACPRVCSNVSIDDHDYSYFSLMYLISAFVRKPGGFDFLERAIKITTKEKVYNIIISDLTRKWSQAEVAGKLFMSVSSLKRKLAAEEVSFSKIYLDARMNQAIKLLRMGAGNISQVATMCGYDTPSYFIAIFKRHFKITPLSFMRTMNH

HilD Y46A = HilD Y46A (Salmonella enterica serovar Typhimurium, UniProt P0CL08 1-309, Y46A); experiment: EMSA; no C26; affinity comparable to WT; settings: protein: recombinant; tags: His6-SUMO removed by SUMO protease; chain copies: 2; label: 5'-Cy5 on strand 1; blunt
HilD L45A = HilD L45A (Salmonella enterica serovar Typhimurium, UniProt P0CL08 1-309, L45A); experiment: EMSA; no C26; affinity comparable to WT; settings: protein: recombinant; tags: His6-SUMO removed by SUMO protease; chain copies: 2; label: 5'-Cy5 on strand 1; blunt
HilD I100A = HilD I100A (Salmonella enterica serovar Typhimurium, UniProt P0CL08 1-309, I100A); experiment: EMSA; no C26; affinity comparable to WT; settings: protein: recombinant; tags: His6-SUMO removed by SUMO protease; chain copies: 2; label: 5'-Cy5 on strand 1; blunt
HilD Y212A = HilD Y212A (Salmonella enterica serovar Typhimurium, UniProt P0CL08 1-309, Y212A); experiment: EMSA; no C26; affinity comparable to WT; settings: protein: recombinant; tags: His6-SUMO removed by SUMO protease; chain copies: 2; label: 5'-Cy5 on strand 1; blunt

Measured: binding result

B1: PhilA A1 62 bp (dsDNA)
DNA 1: GGGAGTAAAGAAAAGACGATATCATTATTTTGCAAAAAAATATAAAAATAAGCGCACCATTA
DNA 2: TAATGGTGCGCTTATTTTTATATTTTTTTGCAAAATAATGATATCGTCTTTTCTTTACTCCC
binds: all assays above
